T1: GST-Rpn10 (full-length Rpn10) (S. cerevisiae, UniProt P38886 1-268)
T1 construct: Rpn10, proteasomal ubiquitin receptor, S. cerevisiae; open reading frame encodes residues 1-268; Plasmid pGST-Rpn10; also called Rpn10 wt; wild-type full-length Rpn10; source: expressed and purified as GST-fusion protein, size exclusion chromatography before each experiment
T1 sequence (looked up): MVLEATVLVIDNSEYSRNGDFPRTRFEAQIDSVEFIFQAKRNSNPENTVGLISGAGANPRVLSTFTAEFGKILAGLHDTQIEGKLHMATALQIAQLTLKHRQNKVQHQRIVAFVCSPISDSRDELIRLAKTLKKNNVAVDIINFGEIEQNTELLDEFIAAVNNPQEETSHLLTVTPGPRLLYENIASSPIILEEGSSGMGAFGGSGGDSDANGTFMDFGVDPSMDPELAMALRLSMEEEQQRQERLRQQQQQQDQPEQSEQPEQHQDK

T2: GST-Rpn10 vWA domain (residues 1-189) (S. cerevisiae, UniProt P38886 1-189)
T2 construct: Rpn10, S. cerevisiae, N-terminal vWA (Von Willebrand factor type A) domain, residues 1-189 (made from pGST-Rpn10 by deleting residues 190-268); also called wild-type vWA; source: expressed and purified as GST-fusion protein, size exclusion chromatography before each experiment
T2 sequence (looked up): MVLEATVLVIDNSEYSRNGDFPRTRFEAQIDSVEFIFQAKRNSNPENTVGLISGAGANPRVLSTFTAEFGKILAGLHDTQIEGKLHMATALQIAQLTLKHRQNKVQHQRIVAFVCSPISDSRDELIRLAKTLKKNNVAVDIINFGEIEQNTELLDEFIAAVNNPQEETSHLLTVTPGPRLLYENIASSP

B1: free mono-ubiquitin (wild type) (natural protein)
chain: not shown
notes: ubiquitin (Ub), the mature 76-residue protein; also called Ub wt; source: purified, size exclusion chromatography before each experiment
B2: GST-Rpn10 UIM (domain or fragment, S. cerevisiae, UniProt P38886 223-242, looked up)
chain: SMDPELAMALRLSMEEEQQR
notes: also called its UIM alone; source: expressed and purified as GST-fusion protein, size exclusion chromatography before each experiment

What was measured:
Assay in all cases: SPR; α-GST antibody immobilized on a CM5 chip captures GST-Rpn10 derivatives (ligands); free mono-Ub variants as analytes; 10 mM HEPES pH 7.0, 150 mM NaCl, 0.005% polysorbate-20, 25 °C; triplicate; single-site-binding model
Settings in all cases: both partners purified
[1] = biological target: T1, GST-Rpn10 (full-length Rpn10)
[2] = biological target: T2, GST-Rpn10 vWA domain (residues 1-189)
[3] = biological target: B1

Row | Kd [1] [µM] | Kd [2] [µM] | Kd [3] [µM] | Binder
1 | ~270 | ~330 |  | B1
2 |  |  | ~180 | B2

Reference: article PMC5059453, “Structure of ubiquitylated-Rpn10 provides insight into its autoregulation mechanism” (Nature Communications, 2016)
